Reference: the supplement of paper PMC10065799, “High-throughput profiling of sequence recognition by tyrosine kinases and SH2 domains using bacterial peptide display” (eLife, 2023)

Columns and labels:
[1] = target: EPHB1 (UniProt P54762); experiment: phosphorylation enrichment, bacterial display (enrichment ratio); higher = better substrate or ligand; peptides without Tyr show the background
[2] = test system: c-Abl (mouse); experiment: as above
[3] = test system: c-Src; experiment: as above
[4] = target: Jak2 (UniProt O60674); experiment: as above
[5] = test system: AncSZ; experiment: as above
[6] = target: Hck (UniProt P08631); experiment: as above
Chain of Hck (P08631 whole entry, looked up): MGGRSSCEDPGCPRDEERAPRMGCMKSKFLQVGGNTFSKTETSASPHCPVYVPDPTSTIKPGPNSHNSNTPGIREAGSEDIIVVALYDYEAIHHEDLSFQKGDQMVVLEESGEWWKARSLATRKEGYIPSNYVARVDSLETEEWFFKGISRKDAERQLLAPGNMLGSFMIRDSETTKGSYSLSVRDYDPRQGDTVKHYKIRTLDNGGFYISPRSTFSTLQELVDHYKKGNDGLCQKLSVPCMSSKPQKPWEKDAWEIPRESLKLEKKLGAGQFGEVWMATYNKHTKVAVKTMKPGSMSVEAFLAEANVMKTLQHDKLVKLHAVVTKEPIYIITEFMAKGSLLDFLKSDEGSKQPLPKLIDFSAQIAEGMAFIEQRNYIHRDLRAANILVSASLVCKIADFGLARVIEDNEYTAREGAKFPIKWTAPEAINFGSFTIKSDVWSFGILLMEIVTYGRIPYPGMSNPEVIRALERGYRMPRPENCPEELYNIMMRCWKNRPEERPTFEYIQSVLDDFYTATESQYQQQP

[7] = target: EPHB2 (UniProt P29323); experiment: as above
Chain of EPHB2 (P29323 whole entry, looked up): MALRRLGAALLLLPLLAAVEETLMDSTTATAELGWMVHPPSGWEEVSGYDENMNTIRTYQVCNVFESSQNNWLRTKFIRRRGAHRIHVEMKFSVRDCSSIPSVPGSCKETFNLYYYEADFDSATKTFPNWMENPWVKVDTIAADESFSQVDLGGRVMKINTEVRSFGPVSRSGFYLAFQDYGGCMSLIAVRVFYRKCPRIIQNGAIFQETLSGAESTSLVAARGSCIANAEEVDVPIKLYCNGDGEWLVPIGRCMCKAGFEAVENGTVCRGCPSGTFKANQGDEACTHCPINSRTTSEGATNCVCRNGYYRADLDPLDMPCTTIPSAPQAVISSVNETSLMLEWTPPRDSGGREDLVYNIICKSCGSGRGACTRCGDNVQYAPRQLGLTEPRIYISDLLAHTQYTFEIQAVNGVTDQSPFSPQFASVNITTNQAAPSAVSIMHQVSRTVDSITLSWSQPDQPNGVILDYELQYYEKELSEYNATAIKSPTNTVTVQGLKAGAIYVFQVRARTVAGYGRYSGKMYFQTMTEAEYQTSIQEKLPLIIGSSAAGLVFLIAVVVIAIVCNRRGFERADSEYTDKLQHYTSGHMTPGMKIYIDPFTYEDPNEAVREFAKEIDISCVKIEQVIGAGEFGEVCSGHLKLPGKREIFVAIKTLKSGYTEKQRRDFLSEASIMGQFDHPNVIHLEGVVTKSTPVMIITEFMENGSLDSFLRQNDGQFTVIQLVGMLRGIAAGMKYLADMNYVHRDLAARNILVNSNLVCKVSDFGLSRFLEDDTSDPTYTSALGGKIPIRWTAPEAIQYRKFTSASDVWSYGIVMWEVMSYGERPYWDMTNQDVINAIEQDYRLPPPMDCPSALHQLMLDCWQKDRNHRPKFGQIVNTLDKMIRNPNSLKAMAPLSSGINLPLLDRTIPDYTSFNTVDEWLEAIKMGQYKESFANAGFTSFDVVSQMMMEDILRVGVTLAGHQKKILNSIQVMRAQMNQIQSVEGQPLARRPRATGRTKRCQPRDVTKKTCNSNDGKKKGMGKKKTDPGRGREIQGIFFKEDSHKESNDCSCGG

[8] = test system: Fer (mouse); experiment: as above
[9] = target: Fes (UniProt P07332); experiment: as above
Chain of Fes (P07332 whole entry, looked up): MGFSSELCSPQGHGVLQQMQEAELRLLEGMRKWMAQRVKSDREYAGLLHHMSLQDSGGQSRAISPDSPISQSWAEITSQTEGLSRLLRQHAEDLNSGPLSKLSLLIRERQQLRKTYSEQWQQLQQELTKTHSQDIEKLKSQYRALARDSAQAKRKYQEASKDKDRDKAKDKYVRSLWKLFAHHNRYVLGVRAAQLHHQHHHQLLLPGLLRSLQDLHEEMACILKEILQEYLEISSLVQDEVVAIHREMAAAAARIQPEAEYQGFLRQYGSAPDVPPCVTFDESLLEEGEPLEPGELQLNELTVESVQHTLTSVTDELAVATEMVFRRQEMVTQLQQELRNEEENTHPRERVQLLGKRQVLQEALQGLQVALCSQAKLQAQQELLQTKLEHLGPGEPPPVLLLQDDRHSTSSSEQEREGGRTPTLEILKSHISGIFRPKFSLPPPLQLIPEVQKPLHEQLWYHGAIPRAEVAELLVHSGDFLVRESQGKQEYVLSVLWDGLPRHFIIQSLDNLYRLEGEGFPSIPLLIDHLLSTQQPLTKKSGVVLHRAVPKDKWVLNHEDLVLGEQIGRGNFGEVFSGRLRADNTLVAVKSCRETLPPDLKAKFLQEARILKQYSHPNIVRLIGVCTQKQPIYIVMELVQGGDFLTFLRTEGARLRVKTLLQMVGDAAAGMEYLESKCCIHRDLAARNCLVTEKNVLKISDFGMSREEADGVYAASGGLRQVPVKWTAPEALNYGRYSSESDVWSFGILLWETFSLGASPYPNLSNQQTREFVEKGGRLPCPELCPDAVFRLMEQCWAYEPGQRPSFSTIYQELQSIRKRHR

[10] = target: MERTK (UniProt Q12866); experiment: as above
[11] = target: Fyn (UniProt P06241); experiment: as above
Chain of Fyn (P06241 whole entry, looked up): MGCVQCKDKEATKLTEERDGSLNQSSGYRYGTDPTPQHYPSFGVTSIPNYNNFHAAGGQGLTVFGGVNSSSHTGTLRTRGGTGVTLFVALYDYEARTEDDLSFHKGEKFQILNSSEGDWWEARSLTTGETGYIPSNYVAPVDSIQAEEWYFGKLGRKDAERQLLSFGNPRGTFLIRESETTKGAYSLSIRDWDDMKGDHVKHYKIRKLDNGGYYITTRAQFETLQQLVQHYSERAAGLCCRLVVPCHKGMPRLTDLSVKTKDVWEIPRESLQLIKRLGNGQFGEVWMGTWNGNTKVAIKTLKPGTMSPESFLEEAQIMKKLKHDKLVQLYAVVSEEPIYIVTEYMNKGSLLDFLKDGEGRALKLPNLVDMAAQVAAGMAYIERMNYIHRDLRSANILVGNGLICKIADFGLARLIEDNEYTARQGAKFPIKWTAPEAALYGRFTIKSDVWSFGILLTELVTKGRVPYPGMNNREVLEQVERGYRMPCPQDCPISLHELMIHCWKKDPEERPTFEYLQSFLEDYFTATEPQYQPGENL

[12] = target: FGFR1 (UniProt P11362); experiment: as above
Chain of FGFR1 (P11362 whole entry, looked up): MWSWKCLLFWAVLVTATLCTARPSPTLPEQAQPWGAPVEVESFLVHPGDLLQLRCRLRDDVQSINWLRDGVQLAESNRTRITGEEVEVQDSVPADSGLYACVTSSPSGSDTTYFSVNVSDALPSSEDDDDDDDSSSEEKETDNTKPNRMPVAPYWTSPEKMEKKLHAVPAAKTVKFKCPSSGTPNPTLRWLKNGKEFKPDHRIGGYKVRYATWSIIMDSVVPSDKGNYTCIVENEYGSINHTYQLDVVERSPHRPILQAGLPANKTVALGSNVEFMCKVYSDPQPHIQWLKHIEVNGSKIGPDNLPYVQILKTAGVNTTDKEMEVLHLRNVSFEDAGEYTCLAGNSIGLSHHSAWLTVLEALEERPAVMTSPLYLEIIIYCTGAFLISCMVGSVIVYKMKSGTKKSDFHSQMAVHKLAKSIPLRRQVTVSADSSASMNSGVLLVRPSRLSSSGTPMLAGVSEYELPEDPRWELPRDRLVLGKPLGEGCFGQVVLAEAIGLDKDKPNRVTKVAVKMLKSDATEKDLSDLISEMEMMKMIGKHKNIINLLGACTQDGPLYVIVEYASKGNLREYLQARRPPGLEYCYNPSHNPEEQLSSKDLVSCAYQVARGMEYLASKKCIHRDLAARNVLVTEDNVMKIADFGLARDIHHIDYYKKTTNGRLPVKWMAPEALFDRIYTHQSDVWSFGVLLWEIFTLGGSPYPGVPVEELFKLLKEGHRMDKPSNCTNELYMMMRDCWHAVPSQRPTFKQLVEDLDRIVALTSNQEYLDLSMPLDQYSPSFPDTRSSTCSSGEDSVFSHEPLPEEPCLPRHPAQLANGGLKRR

[13] = target: FGFR3 (UniProt P22607); experiment: as above
Chain of FGFR3 (P22607 whole entry, looked up): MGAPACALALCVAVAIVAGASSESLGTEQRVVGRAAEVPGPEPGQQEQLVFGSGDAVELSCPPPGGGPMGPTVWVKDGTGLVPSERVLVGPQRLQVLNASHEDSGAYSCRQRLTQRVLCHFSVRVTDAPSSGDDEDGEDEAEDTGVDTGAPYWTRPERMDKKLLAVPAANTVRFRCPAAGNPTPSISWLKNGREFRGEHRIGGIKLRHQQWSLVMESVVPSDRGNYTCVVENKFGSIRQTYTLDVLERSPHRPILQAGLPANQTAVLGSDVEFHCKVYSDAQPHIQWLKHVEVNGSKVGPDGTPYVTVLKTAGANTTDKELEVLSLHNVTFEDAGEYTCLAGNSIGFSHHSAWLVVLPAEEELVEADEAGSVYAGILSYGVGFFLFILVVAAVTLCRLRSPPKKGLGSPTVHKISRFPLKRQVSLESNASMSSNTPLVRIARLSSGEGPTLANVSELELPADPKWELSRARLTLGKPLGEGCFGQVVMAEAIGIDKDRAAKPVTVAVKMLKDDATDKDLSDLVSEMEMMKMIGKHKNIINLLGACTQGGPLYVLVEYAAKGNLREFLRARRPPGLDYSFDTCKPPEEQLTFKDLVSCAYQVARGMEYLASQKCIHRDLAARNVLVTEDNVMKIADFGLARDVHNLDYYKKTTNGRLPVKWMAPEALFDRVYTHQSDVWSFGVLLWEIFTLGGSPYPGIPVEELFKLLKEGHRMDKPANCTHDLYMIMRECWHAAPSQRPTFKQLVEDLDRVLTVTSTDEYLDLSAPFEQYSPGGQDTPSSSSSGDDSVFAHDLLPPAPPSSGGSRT

[14] = target: SHP2-C SH2; experiment: SH2 binding enrichment of the phosphorylated peptide, bacterial display (enrichment ratio); higher = better substrate or ligand; peptides without Tyr show the background
[15] = target: c-Src SH2; experiment: as above
[16] = target: Grb2 SH2 (UniProt P62993); experiment: as above
Chain of Grb2 SH2 (P62993 whole entry, looked up, the tested form may be a part): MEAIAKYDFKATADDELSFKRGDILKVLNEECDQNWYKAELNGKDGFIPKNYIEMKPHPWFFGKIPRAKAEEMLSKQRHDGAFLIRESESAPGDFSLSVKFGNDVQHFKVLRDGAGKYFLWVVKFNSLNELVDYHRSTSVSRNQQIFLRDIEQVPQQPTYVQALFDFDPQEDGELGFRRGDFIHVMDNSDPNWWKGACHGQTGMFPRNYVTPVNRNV
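Wherever SH2 binding enrichment of the phosphorylated peptide, bacterial display is given: peptide library displayed on the E. coli surface as eCPX fusions, selected cells deep-sequenced, score is each peptide's frequency after selection divided by its frequency in the input.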
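Wherever phosphorylation enrichment, bacterial display is given: 11-residue human phosphosite peptides and single-mutation variants displayed on the E. coli surface, counted by deep sequencing, each peptide's frequency after selection divided by its frequency in the unselected input library; frequency after pTyr selection over input frequency; kinase dosed for 20-30% of maximal phosphorylation in three min.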

Sequence | phosphorylation enrichment [1] | phosphorylation enrichment [2] | phosphorylation enrichment [3] | phosphorylation enrichment [4] | phosphorylation enrichment [5] | phosphorylation enrichment [6] | phosphorylation enrichment [7] | phosphorylation enrichment [8] | phosphorylation enrichment [9] | phosphorylation enrichment [10] | phosphorylation enrichment [11] | phosphorylation enrichment [12] | phosphorylation enrichment [13] | SH2 binding enrichment [14] | SH2 binding enrichment [15] | SH2 binding enrichment [16]
NTGGFYDLFGG [PTPN11_Y63_D61G_YF] | 0.829 | 0.836 | 4.17 | 1.1 | 1.05 | 5.68 | 0.899 | 3.82 | 1.18 | 9.2 | 7.59 | 0.478 | 0.719 | 0.784 | 0.677 | 1.09
LGLTVYADCLA [ABCA4_Y2063] | 0.686 | 0.815 | 0.473 | 0.992 | 1.14 | 0.515 | 0.657 | 0.584 | 1.39 | 0.369 | 0.589 | 0.618 | 0.78 | 0.553 | 0.564 | 0.918
GDYYRYLAEVA [YWHAG_Y133] | 3.59 | 1.09 | 1.93 | 5.81 | 2.37 | 1.31 | 3.79 | 0.476 | 1.01 | 2.63 | 1.39 | 11.5 | 9.01 | 0.905 | 0.569 | 1.02
GIVKAYYVRAR [AIPL1_Y267] | 0.398 | 0.558 | 0.415 | 0.706 | 1.03 | 0.396 | 0.47 | 0.407 | 0.771 | 0.465 | 0.394 | 0.461 | 0.548 | 0.502 | 0.464 | 0.858
DEEDFYQGSME [ASCC1_Y36] | 0.761 | 0.889 | 0.603 | 1.54 | 1.46 | 0.654 | 0.595 | 0.798 | 1.54 | 0.524 | 0.598 | 0.549 | 0.953 | 0.575 | 0.427 | 0.572
EQMASYFGHSV [ITGA2B_Y319] | 0.44 | 0.573 | 0.553 | 0.842 | 0.662 | 0.452 | 0.488 | 0.584 | 0.663 | 0.425 | 0.549 | 0.576 | 0.59 | 0.596 | 0.491 | 0.758
TFEPNYGTVKR [RAPGEF6_Y1447_Q1452R_YF] | 0.55 | 0.691 | 2.66 | 0.497 | 0.707 | 2.72 | 1.45 | 0.701 | 0.586 | 0.385 | 3.76 | 0.448 | 0.45 | 0.687 | 0.514 | 0.982
FLNSIYQSRDE [ROS1_Y2227_K2228Q] | 0.533 | 0.775 | 4.63 | 0.791 | 0.743 | 4.33 | 0.441 | 0.548 | 0.764 | 0.489 | 4.07 | 0.353 | 0.785 | 0.74 | 0.361 | 0.789
RLEGVYRNNID [PTEN_Y46] | 0.478 | 1.35 | 0.561 | 0.751 | 0.553 | 0.389 | 0.578 | 0.849 | 0.889 | 0.291 | 0.675 | 0.293 | 0.703 | 0.588 | 0.398 | 0.948
SIIKDYFHRGT [GATM_Y203_A208T] | 0.42 | 0.514 | 0.569 | 0.551 | 0.656 | 0.463 | 0.604 | 0.465 | 0.62 | 0.365 | 0.433 | 0.476 | 0.542 | 0.631 | 0.469 | 0.685
HNLDFYKMTTN [FGFR3_Y648_K650M_YF] | 0.954 | 0.954 | 0.364 | 1.25 | 2.03 | 1.67 | 1.1 | 0.728 | 1.74 | 0.783 | 1.66 | 1.45 | 1.88 | 0.981 | 0.474 | 0.62
EATKGYPDDPT [G6PD_Y322_L323P] | 0.501 | 0.786 | 0.493 | 1.07 | 0.901 | 0.508 | 0.673 | 0.483 | 1.05 | 0.515 | 0.479 | 0.465 | 0.609 | 0.538 | 0.485 | 0.765
RVKTPYSLKRW [BMPR2_Y979] | 0.608 | 0.944 | 0.616 | 1.24 | 1.19 | 0.745 | 0.516 | 0.756 | 1.17 | 0.572 | 0.582 | 0.666 | 0.931 | 3.37 | 2.06 | 1.95
FFSSEYHCVGG [CTSC_Y345_Y347C_YF] | 2.37 | 1.88 | 2.1 | 1.08 | 2.38 | 1.66 | 2.15 | 0.545 | 1.17 | 0.651 | 1.58 | 7.57 | 4.98 | 0.8 | 0.709 | 0.87
SGGGLYRDMGA [CBX8_Y321] | 0.53 | 0.502 | 0.373 | 0.557 | 0.564 | 0.428 | 0.624 | 0.373 | 0.618 | 0.42 | 0.48 | 0.524 | 0.522 | 0.589 | 0.542 | 0.842
ITGNGYFFRVF [MYBPC3_Y1135_I1131T_YF] | 0.496 | 0.647 | 0.31 | 0.99 | 0.906 | 0.377 | 0.493 | 0.416 | 1.08 | 0.305 | 0.358 | 0.451 | 0.595 | 0.735 | 0.457 | 0.75
LEPHIYAVADV [MYO9A_Y216] | 0.822 | 14.1 | 2.11 | 0.741 | 0.926 | 1.6 | 1.2 | 1.64 | 1.02 | 1.28 | 1.74 | 0.469 | 0.616 | 0.789 | 3.29 | 0.979

Sequence | phosphorylation enrichment [1] | phosphorylation enrichment [2] | phosphorylation enrichment [3] | phosphorylation enrichment [4] | phosphorylation enrichment [5] | phosphorylation enrichment [6] | phosphorylation enrichment [7] | phosphorylation enrichment [8] | phosphorylation enrichment [9] | phosphorylation enrichment [10] | phosphorylation enrichment [11] | phosphorylation enrichment [12] | phosphorylation enrichment [13] | SH2 binding enrichment [14] | SH2 binding enrichment [15] | SH2 binding enrichment [16]
QLCVSYPGGYT [PROS1_Y259_N258S] | 0.588 | 0.683 | 0.4 | 0.862 | 1.03 | 0.416 | 0.719 | 0.591 | 0.888 | 0.402 | 0.597 | 0.592 | 0.665 | 0.784 | 0.541 | 0.861
SRVNKYSTAFG [GJB3_Y16_G12R] | 0.426 | 0.584 | 0.383 | 0.644 | 0.571 | 0.344 | 0.347 | 0.499 | 0.633 | 0.406 | 0.371 | 0.383 | 0.489 | 1.3 | 0.896 | 1.02
SVVVPYEPREV [TP53_Y220_P223R] | 0.53 | 0.656 | 0.472 | 0.746 | 0.813 | 0.453 | 0.506 | 0.465 | 0.998 | 0.373 | 0.473 | 0.527 | 0.597 | 0.532 | 0.415 | 0.829
AQADIYKADFQ [IKBKG_Y308] | 0.465 | 0.675 | 0.925 | 0.672 | 0.856 | 0.78 | 0.535 | 0.354 | 0.848 | 0.399 | 0.734 | 0.44 | 0.722 | 0.647 | 0.421 | 0.836
DDSSAYRSVDE [BCKDHA_Y345] | 0.671 | 1.01 | 0.568 | 1.12 | 1.16 | 0.553 | 0.528 | 0.721 | 1.29 | 0.485 | 0.547 | 0.569 | 0.707 | 0.765 | 0.886 | 0.794
KPSLKYVTYGN [GALNTL5_Y404_G401S] | 0.334 | 0.408 | 0.387 | 0.443 | 0.577 | 0.462 | 0.349 | 0.417 | 0.65 | 0.348 | 0.379 | 0.4 | 0.516 | 0.985 | 0.836 | 1.09
KILTHYKQPHT [KMT2D_Y5349_R5351Q] | 0.364 | 1.18 | 0.416 | 0.726 | 0.763 | 0.46 | 0.403 | 0.384 | 0.565 | 0.506 | 0.478 | 0.437 | 0.412 | 0.998 | 0.907 | 1.05
RGYRQDAYDGK [HLA-A_Y140] | 0.519 | 0.859 | 0.526 | 0.859 | 0.773 | 0.591 | 0.546 | 0.764 | 0.677 | 0.436 | 0.671 | 0.641 | 0.509 | 0.458 | 0.517 | 1.3
LTFHMYADPNI [SOS1_Y618_F623I_YF] | 1.77 | 1.57 | 0.564 | 2.23 | 2.46 | 0.799 | 2.05 | 1.25 | 2.48 | 0.583 | 0.747 | 1.35 | 2.09 | 0.959 | 5.33 | 0.811
FVHDNYVIRRT [CPS1_Y1450] | 0.376 | 0.418 | 0.536 | 0.714 | 0.772 | 0.489 | 0.499 | 0.435 | 0.739 | 0.391 | 0.446 | 0.4 | 0.467 | 0.517 | 0.416 | 0.655
DNAYQYMLTDR [MYH7_Y164] | 0.61 | 0.526 | 0.767 | 0.85 | 1.23 | 0.608 | 0.461 | 2.74 | 0.859 | 1.27 | 0.658 | 3.6 | 2.3 | 0.664 | 1.34 | 0.7
HNVPICEGFAL [ACTC1_Y168_Y168C_YF] | 0.729 | 1.06 | 0.621 | 1.15 | 1.1 | 0.708 | 0.704 | 0.59 | 1.29 | 0.673 | 0.75 | 0.849 | 0.947 | 1.16 | 0.555 | 0.871
SFHCSYSEIKD [DCLRE1C_Y322_S320C] | 0.599 | 0.873 | 0.647 | 0.9 | 1.06 | 0.568 | 0.59 | 0.639 | 1.21 | 0.497 | 0.585 | 0.558 | 0.811 | 2.29 | 3.86 | 0.704
YTTIHYNYMCN [TP53_Y234_C229Y] | 1.81 | 0.92 | 1.27 | 1.26 | 1.43 | 0.917 | 0.897 | 2.08 | 1.16 | 4.13 | 0.976 | 4.5 | 3.35 | 2.47 | 6.95 | 1
LEISPYMLSGP [LRRK2_Y1718_R1723P] | 0.753 | 0.866 | 3.58 | 1.35 | 1.53 | 1.1 | 0.633 | 2.63 | 1.16 | 1.97 | 3.67 | 0.921 | 0.983 | 0.465 | 0.517 | 0.904
SFVMVYEGNAR [INSR_Y1038_G1035V] | 0.621 | 0.618 | 0.77 | 1.22 | 1.28 | 0.747 | 0.683 | 0.551 | 1.25 | 0.393 | 0.634 | 0.562 | 0.85 | 0.942 | 0.531 | 0.973
